Read-outs that look alike come from different tables or passages of the source.
Columns and labels:
[1] = biological target: T1, human TIGIT on cells (human, UniProt Q495A1 22-141); test: FACS titration of AF647-labelled mAb on human effector memory CD8+ T cells, Donor 334
T1 construct: also called Expi293 human TIGIT over-expressing cells
T1 sequence: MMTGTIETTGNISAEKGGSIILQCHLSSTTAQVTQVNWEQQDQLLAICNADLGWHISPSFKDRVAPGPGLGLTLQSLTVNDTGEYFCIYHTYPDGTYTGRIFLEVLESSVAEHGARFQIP

[2] = biological target: T2, cyno TIGIT on cells (cynomolgus macaque); test: FACS titration on cyno TIGIT OE Expi293 cells, binding site concentration; ± 95% CI; 'Fit: Good/Excellent'
T2 construct: whole, on cells; also called Expi293 cyno TIGIT over-expressing cells

[3] = biological target: T3, Cyno TIGIT-His; test: SPR (ProteOn), Cyno TIGIT-His
T3 construct: also called cyno TIGIT monomer (prepared in-house); C-terminal HIS-tagged cyno TIGIT ECD recombinant protein
T3 sequence (ECD with C-terminal His tag, as listed by the source): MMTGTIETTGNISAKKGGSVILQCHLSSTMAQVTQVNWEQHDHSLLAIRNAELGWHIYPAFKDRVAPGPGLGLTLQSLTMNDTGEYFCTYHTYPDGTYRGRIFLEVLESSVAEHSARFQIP

[4] = biological target: T1, human TIGIT on cells; test: FACS titration of AF647-labelled mAb on human effector memory CD8+ T cells, Donor 322
[5] = biological target: T1, human TIGIT on cells; test: FACS blocking of human PVR-m2aFc binding to human TIGIT OE Expi293 cells; binding site concentration; n=1
[6] = biological target: T1, human TIGIT on cells; test: FACS titration of AF647-labelled mAb on human effector memory CD8+ T cells, Donor 321
[7] = biological target: T4, Mouse TIGIT-His (mouse, UniProt P86176); test: SPR (ProteOn), mAb captured, mouse TIGIT monomer injected; BM29 as hIgG4
T4 construct: also called mouse TIGIT monomer (prepared in-house)
T4 sequence (soluble monomer with His tag, looked up): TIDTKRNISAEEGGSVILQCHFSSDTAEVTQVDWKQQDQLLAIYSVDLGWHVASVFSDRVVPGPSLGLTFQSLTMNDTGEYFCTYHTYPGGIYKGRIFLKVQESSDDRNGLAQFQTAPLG

[8] = biological target: T5, human TIGIT ECD with C-terminal polyhistidine tag (human, UniProt Q495A1 22-141); test: SPR (ProteOn), Human TIGIT-His
T5 construct: in-house or Sino Biological; also called hTIGIT-HIS; human TIGIT-HIS
T5 sequence: T1 sequence

[9] = biological target: T1, human TIGIT on cells; test: FACS blocking of human PVR-m2aFc binding to human TIGIT OE Expi293 cells; binding site concentration; n=2
[10] = biological target: T5, human TIGIT ECD with C-terminal …; test: SPR (ProteOn), mAb captured, human TIGIT injected; BM29 as hIgG4
[11] = biological target: T1, human TIGIT on cells; test: FACS titration on human TIGIT OE Expi293 cells, binding site concentration; ± 95% CI; 'Fit: Excellent'
[12] = biological target: T6, cynomolgus PVRIG on cells (cynomolgus, UniProt A0A2K5WVV8 41-322); test: flow cytometry titration, expi cPVRIG cells
T6 construct: whole, on cells; also called cPVRIG; expi cPVRIG cells
T6 sequence: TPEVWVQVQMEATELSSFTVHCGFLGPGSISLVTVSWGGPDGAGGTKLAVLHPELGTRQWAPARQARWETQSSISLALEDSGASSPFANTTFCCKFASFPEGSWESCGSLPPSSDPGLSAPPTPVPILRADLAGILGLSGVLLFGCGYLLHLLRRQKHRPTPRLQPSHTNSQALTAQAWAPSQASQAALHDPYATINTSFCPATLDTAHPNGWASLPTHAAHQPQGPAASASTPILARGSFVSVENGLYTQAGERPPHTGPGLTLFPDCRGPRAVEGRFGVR

[13] = biological target: T7, human PVRIG on cells (human, UniProt Q6DKI7 1-326); test: FACS on Jurkat cells pre-incubated with CHA.7.518.1 (unconjugated)
T7 construct: whole, on cells; over-expressed on HEK cells or endogenous on Jurkat and CD8 T cells; also called hPVRIG; HEK hPVRIG cells
T7 sequence (looked up): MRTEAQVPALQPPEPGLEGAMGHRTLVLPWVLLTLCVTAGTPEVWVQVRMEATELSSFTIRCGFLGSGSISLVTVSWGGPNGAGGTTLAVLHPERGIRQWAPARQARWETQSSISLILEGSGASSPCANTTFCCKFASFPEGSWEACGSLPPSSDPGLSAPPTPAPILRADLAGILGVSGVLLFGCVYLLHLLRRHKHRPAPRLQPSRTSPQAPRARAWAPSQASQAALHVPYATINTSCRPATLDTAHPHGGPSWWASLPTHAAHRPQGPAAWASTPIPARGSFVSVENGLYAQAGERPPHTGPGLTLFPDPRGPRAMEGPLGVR

[14] = biological target: T7, human PVRIG on cells; test: FACS on Jurkat cells pre-incubated with CHA.7.538.1.2 (unconjugated)
[15] = biological target: T7, human PVRIG on cells; test: flow cytometry titration, HEK hPVRIG cells
[16] = biological target: T8, PVRIG Fc (UniProt Q6DKI7 41-171, limits assumed, biotinylated (Example 5)); test: FACS competition: biotinylated PVRIG Fc (33 nM) binding to HEK cells with endogenous PVRL2
T8 construct: also called biotinylated PVRIG Fc protein; PVRIG-Fc-fusion protein
T8 sequence (looked up): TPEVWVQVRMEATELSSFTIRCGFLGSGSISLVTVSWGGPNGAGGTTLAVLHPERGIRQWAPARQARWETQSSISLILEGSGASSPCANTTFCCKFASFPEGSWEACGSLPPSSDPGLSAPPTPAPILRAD

[17] = biological target: T7, human PVRIG on cells; test: FACS on Jurkat cells pre-incubated with Isotype (unconjugated)
[18] = biological target: T7, human PVRIG on cells; test: FACS competition: PVRL2 mFc binding to HEK hPVRIG cells
[19] = biological target: T7, human PVRIG on cells; test: flow cytometry titration, Jurkat cells
[20] = biological target: T9, PVRIG (FACS-based competition assay of FIGS. 7 and 15) (Homo sapiens, UniProt Q6DKI7); test: FACS-based competition assay of PVRIG blocking; format and competitor not given
T9 construct: made because the format of the assay is only described in U.S. Ser. No. 15/048,967; also called human PVRIG
T9 sequence (receptor, looked up): T8 sequence (looked up)

[21] = biological target: T7, human PVRIG on cells; test: FACS, HEK hPVRIG cells (HEK OE)
[22] = biological target: T7, human PVRIG on cells; test: flow cytometry, Jurkat cells
[23] = biological target: T9, PVRIG (FACS-based competition assay of …); test: FACS-based competition assay of PVRIG blocking; format and competitor not given; remark: listed apart in the source
[24] = biological target: T7, human PVRIG on cells; test: flow cytometry, HEK hPVRIG cells
[25] = biological target: T7, human PVRIG on cells; test: FACS on HEK hPVRIG cells; column head 'Kd', unit nM from legend paragraph 75
[26] = biological target: T7, human PVRIG on cells; test: FACS on Jurkat cells; column head 'Kd', unit nM from legend paragraph 75
[27] = biological target: T10, mPVRL2 HIS (mouse, UniProt P32507 32-351, limits assumed); test: ELISA: soluble receptor Fc titrated on immobilized mPVRL2 HIS
T10 construct: also called mPVRL2 protein; Soluble PVRL2 HIS protein
T10 sequence (looked up): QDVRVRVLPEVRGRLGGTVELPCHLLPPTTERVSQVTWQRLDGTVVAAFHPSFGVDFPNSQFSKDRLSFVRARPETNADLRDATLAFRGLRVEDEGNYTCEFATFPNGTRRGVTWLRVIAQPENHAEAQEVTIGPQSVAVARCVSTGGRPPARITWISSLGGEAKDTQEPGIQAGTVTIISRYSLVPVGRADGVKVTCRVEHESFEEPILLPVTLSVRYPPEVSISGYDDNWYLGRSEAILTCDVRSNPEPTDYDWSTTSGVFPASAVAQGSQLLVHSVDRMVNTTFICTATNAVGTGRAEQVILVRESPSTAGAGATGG

B1: BM29 hIgG4 (antibody, V domains shown)
VH: QVHLQESGPGLVKPSETLSLTCTVSGGSVSSGIYYWSWIRQPPGKGLEWIGYIYYSGSTNYNPSLKSRVTISVDTSKNQFSLKLSSVTAADTAVYYCARDYYVSGNYYNVDYYFFGVDVWGQGTTVTVSS
VL: EIVLTQSPATLSLSPGERATLSCRASQSVSSYLAWYQQKPGQAPRLLIYDASNRATGIPARFSGSGSGTDFTLTISSLEPEDFAVYYCQQRSNWPPLFTFGPGTKVDIKR
notes: benchmark anti-human TIGIT antibody, human IgG4 with S241P; also called BM29-H4; US2016/0176963A1 Clone 22G2 as hIgG4
B1 was tested. Which Kd [1] did it give?
The Kd was 0.59 nM.

What about the Kd [2] of the same binder?
Its Kd is 1.67 nM.

What about the Kd [3] of the same binder?
Its Kd is 1.54 nM.

What about the Kd [4] of the same binder?
The Kd was 0.91 nM.

What about the IC50 [5] of the same binder?
Its IC50 is 1 nM.

And the Kd [6]?
The Kd was 0.88 nM.

Does B1 bind [7]?
Result: no binding (tested: 92.9 nM mouse TIGIT)

And the Kd [8]?
Its Kd is 0.011 nM.

And the IC50 [9]?
Its IC50 is 0.5 nM.

What about the Kd [10] of the same binder?
Its Kd is 0.015 nM.

And the Kd [11]?
Its Kd is 1.53 nM.

B2: CHA.7.538.1.2.H4(S241P) (antibody, human IgG4 S228P, kappa, V domains shown)
VH: QVQLVQSGAEVKKPGASVKVSCKASGYAFTNYLIEWVRQAPGQGLEWIGVINPGSGGIYYAQKFQGRVTMTADTSTSTVYMELSSLRSEDTAVYYCARSETHDTWFAYWGQGTLVTVSS
VL: DIQMTQSPSSLSASVGDRVTITCKASQSVRIAVAWFQQKPGKAPKALIYLASTRHTGVPSRFSGSGSGTDFTLTISSVQPEDFATYYCLQHWNYPYTFGQGTKLEIKR
notes: humanized, human IgG4 with S241P
What does the source list for B2?
Kd [12]: 0.58 nM; % binding relative to maximum signal [13]: 32%; % binding relative to maximum signal [14]: 7%; Kd [15]: 0.86 nM; IC50 [16]: 16.1 nM; % binding relative to maximum signal [17]: 100%; IC50 [18]: 2.53 nM; Kd [19]: 0.59 nM

B3: CHA.7.518 (antibody, V domains shown)
VH: EVQLQQSGPELVKPGASVKISCKASGYTFTDYNINWVKQSHGKSLEWIGYIYPYIGGSGYNQKFKSKATLSADNPSSTAYMELRSLTSEDSAVYYCAREDKTARNAMDYWGQGTPVTVSS
VL: DIQMTQSPASLSVSVGETVTIICRVSENIYSNLAWYQQKQGKSPQLLVYEATNLAEGVPSRFSGSGSGTQYSLKINSLQSEDFGSYYCQHFWGTPYTFGGGTKLEIK
With B3 as the binder, how does the IC50 [20] read?
Its IC50 is 23.1 nM.

And the EC50 [21]?
Its EC50 is 0.36 nM.

And the “fold higher affinity than CPA.7.021” value [22]?
Its value is roughly 13 fold.

And the IC50 [23]?
The IC50 was 23.1 nM.

And the “fold higher affinity than CPA.7.021” value [24]?
Its value is roughly 8 fold.

And the Kd [25]?
The Kd was 0.36 nM.

And the Kd [26]?
The Kd was 0.24 nM.

B4: TIGIT Fc (Fc fusion, UniProt P86176 29-148, looked up)
fusion chain: T4 sequence (soluble monomer with His tag, looked up)
notes: receptor part of an Fc fusion; Soluble receptor Fc tested on immobilized mPVRL2 HIS
Does B4 bind [27]?
Result: no binding (tested: about 200 nM)
